# Data from article PMC12709181.
# Assays:
# [1] = target: proliferating cell nuclear antigen (PCNA) (yeast) (UniProt P15873)
# [2] = target: proliferating cell nuclear antigen (PCNA) (yeast) (UniProt P15873); remark: listed apart in the source
# Sequence of proliferating cell nuclear antigen (PCNA) (yeast) (P15873 whole entry): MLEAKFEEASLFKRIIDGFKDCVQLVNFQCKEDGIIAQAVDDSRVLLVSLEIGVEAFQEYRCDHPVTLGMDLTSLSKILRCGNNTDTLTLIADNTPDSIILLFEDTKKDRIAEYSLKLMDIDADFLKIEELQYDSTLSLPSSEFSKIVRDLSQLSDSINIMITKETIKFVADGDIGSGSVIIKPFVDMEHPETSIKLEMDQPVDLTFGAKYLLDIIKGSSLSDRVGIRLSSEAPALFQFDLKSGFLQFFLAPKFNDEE
"processivity assay under single-hit conditions: product length on primed M13mp18 ssDNA upon addition of PCNA (0, 5, 10, 20 min) [1] [nts]",holoenzyme assay: product length of DNA synthesis on single-primed M13mp18 ssDNA with PCNA loaded by RFC (10 and 20 min); much less stimulation by PCNA [2] [bp],"processivity assay under single-hit conditions: product length on primed M13mp18 ssDNA upon addition of PCNA (0, 5, 10, 20 min); increase comparable to wild type [1] [nts]","holoenzyme assay: product length of DNA synthesis on single-primed M13mp18 ssDNA with PCNA loaded by RFC (10 and 20 min); stimulated by PCNA, although to a lesser extent than wild-type Pol ε [2] [bp]",Substance
85,400,–,–,four-subunit yeast Pol ε with the P-domain mutation KKRL736-739AAAA in Pol2 (P3) (from UniProt P21951 1-2222; P24482 1-689; P27344 1-201; Q04603 1-196) (complex)
–,–,300,3000,"four-subunit yeast Pol ε with the P-domain mutations D695A, E696A, N698A, K745A in Pol2 (DENK) (from UniProt P21951 1-2222; P24482 1-689; P27344 1-201; Q04603 1-196) (complex)"
300,–,–,–,"wild-type four-subunit yeast DNA polymerase ε (Pol2, Dpb2, Dpb3, Dpb4) (from UniProt P21951 1-2222; P24482 1-689; P27344 1-201; Q04603 1-196) (complex)"
